According to PMC11371196, “PLASMODESMATA-LOCATED PROTEIN 6 regulates plasmodesmal function in Arabidopsis vasculature” (The Plant Cell, 2024):
Values belong to the binder of their own block, whether it stands above or below them. Where no end group is shown, it is not given here.

Legend:
[1] = target: T1, maltose binding protein fused SUS6 (Arabidopsis thaliana, UniProt Q9FX32 1-942); assay: pull-down; 1 μg biotinylated peptide with 1 μg MBP or MBP fusion protein in 300 μL binding buffer (50 mM Tris pH 7.5, 150 mM NaCl, 0.05% NP-40), 4 °C overnight; Dynabeads MyOne Streptavidin C1; immunoblot with MBP antibody; settings: both partners purified
T1 construct: SUCROSE SYNTHASE 6 (SUS6), Arabidopsis thaliana, At1G73370; also called MBP-SUS6; pET-MBP-SUS6; source: E. coli Rosetta, purified (amylose resin); not shown: MBP, N-terminal, kept

[2] = target: free MBP (UniProt P0AEX9 27-396 = MBP); assay: as above; settings: both partners purified

T1 sequence (Q9FX32 whole entry, the tested form may be a part): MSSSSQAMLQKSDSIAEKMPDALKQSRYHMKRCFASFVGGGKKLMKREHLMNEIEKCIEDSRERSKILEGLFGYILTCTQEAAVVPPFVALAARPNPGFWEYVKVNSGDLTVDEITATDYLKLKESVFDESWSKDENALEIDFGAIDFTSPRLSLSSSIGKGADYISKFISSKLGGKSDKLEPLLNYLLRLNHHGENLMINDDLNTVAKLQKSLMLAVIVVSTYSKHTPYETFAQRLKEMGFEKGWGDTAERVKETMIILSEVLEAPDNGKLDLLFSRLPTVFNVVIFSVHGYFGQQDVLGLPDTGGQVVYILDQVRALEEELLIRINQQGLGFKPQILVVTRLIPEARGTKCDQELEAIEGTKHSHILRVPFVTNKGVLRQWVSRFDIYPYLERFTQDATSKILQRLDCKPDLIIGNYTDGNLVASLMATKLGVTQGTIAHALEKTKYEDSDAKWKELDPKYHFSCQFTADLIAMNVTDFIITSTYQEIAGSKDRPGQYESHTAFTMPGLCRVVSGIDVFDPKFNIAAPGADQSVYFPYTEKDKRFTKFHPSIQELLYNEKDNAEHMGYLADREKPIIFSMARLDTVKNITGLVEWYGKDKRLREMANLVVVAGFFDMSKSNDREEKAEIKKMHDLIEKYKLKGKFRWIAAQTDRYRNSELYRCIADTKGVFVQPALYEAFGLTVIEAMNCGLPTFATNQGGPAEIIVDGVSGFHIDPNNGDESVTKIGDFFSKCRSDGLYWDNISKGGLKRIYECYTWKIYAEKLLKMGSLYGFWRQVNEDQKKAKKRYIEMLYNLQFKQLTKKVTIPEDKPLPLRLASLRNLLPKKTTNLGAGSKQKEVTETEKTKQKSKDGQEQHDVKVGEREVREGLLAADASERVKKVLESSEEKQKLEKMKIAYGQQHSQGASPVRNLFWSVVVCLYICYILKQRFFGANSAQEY

binding result [1]: binds
B1: biotinylated C-terminal tail of PDLP5 (peptide)
peptide: GKCCRKLQDEKWCK
modifications: cysteine pairing not given here; also: biotin (position not given here)
notes: C-terminal tail of PDLP5, Arabidopsis thaliana, At1g70690; also called PDLP5-CT-biotin; source: synthetic peptide, bought: PEPTIDE 2.0

binding result [1]: binds
B2: biotinylated C-terminal tail of PDLP6 (peptide)
peptide: AKSCERGKGGK
modifications: also: biotin (position not given here)
notes: C-terminal tail of PDLP6, which faces the cytoplasmic sleeve; Arabidopsis thaliana, At2g01660; also called PDLP6-CT-biotin; source: synthetic peptide, bought: PEPTIDE 2.0

binding result [2]: binds
B3: biotinylated C-terminal tail of PDLP7 (peptide)
peptide: RGVCSRGGDFSILHSFTLI
modifications: also: biotin (position not given here)
notes: C-terminal tail of PDLP7, Arabidopsis thaliana, At5G37660; also called PDLP7-CT-biotin; source: synthetic peptide, bought: PEPTIDE 2.0
